According to the supplement of paper PMC10567573:

B1: PLAGL1 (parent)
chain: EKPPSGTKEKKHQCDHCERCFYTR
B2: RIPK4 (parent)
chain: AAWQGHLPIVKLLAKQPGVSVNAQ

Variants of: B1
Experiment: protein stability index of a GFP-peptide fusion (GPS, HEK-293T) (PSI 1-6); higher = more stable
Conditions: c terminus: a fixed tail appended
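Further: lentivirally expressed fusions sorted by FACS into six bins by GFP to DsRed ratio, PSI derived from sequencing read proportions per bin multiplied by bin number.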

| Variant | protein stability index |
| --- | --- |
| EKPPSGTKEKKHQCDHCERCFQTR [Y22Q] | 4.21 |
| EKPPSGTKEKKHQCDHCERCFWTR [Y22W] | 3.18 |
| EKPPSGTKEKKHQCDHCERCFTTR [Y22T] | 3.89 |
| EKPPSGTKEKKHQCDHCERCFPTR [Y22P] | 4.05 |
| EKPPSGTKEKKHQCDHCERCFNTR [Y22N] | 4.22 |
| EKPPSGTKEKKHQCDHCERCFSTR [Y22S] | 4.17 |
| EKPPSGTKEKKHQCDHCERCFVTR [Y22V] | 3.69 |
| EKPPSGTKEKKHQCDHCERCFRTR [Y22R] | 4.3 |
| EKPPSGTKEKKHQCDHCERCFYTP [R24P] | 4.9 |
| EKPPSGTKEKKHQCDHCERCFYTI [R24I] | 4.37 |
| EKPPSGTKEKKHQCDHCERCFYTF [R24F] | 4.35 |
| EKPPSGTKEKKHQCDHCERCFYTQ [R24Q] | 5.28 |
| EKPPSGTKEKKHQCDHCERCFYTS [R24S] | 4.33 |
| EKPPSGTKEKKHQCDHCERCFYTY [R24Y] | 3.96 |
| EKPPSGTKEKKHQCDHCERCFYTT [R24T] | 4.93 |
| EKPPSGTKEKKHQCDHCERCFYTV [R24V] | 4.07 |
| EKPPSGTKEKKHQCDHCERCFYTE [R24E] | 4.67 |
| EKPPSGTKEKKHQCDHCERCFYTG [R24G] | 4.24 |
| EKPPSGTKEKKHQCDHCERCFYTM [R24M] | 4.68 |
| EKPPSGTKEKKHQCDHCERCFYTA [R24A] | 4.68 |
| EKPPSGTKEKKHQCDHCERCFYTC [R24C] | 4.61 |
| EKPPSGTKEKKHQCDHCERCFYTD [R24D] | 5.07 |
| EKPPSGTKEKKHQCDHCERCFYTN [R24N] | 4.55 |

| Variant | protein stability index |
| --- | --- |
| EKPPSGTKEKKHQCDHCERCFYTK [R24K] | 4.74 |
| EKPPSGTKEKKHQCDHCERCFYTL [R24L] | 4.29 |
| EKPPSGTKEKKHQCDHCERCFYTH [R24H] | 4.67 |
| EKPPSGTKEKKHQCDHCERCFYTW [R24W] | 4.29 |
| EKPPSGTKEKKHQCDHCERCFYCR [T23C] | 4.64 |
| EKPPSGTKEKKHQCDHCERCFYDR [T23D] | 4.63 |
| EKPPSGTKEKKHQCDHCERCFYER [T23E] | 5.09 |
| EKPPSGTKEKKHQCDHCERCFYMR [T23M] | 4.34 |
| EKPPSGTKEKKHQCDHCERCFYVR [T23V] | 4.11 |
| EKPPSGTKEKKHQCDHCERCFYKR [T23K] | 3.99 |
| EKPPSGTKEKKHQCDHCERCFYGR [T23G] | 4.1 |
| EKPPSGTKEKKHQCDHCERCFYIR [T23I] | 4.03 |
| EKPPSGTKEKKHQCDHCERCFYHR [T23H] | 3.86 |
| EKPPSGTKEKKHQCDHCERCFYLR [T23L] | 4.64 |
| EKPPSGTKEKKHQCDHCERCFYAR [T23A] | 3.89 |
| EKPPSGTKEKKHQCDHCERCFYNR [T23N] | 2.86 |
| EKPPSGTKEKKHQCDHCERCFYPR [T23P] | 3.64 |
| EKPPSGTKEKKHQCDHCERCFYRR [T23R] | 3.4 |
| EKPPSGTKEKKHQCDHCERCFYYR [T23Y] | 3.83 |
| EKPPSGTKEKKHQCDHCERCFYWR [T23W] | 4.12 |
| EKPPSGTKEKKHQCDHCERCFYFR [T23F] | 3.97 |
| EKPPSGTKEKKHQCDHCERCFYQR [T23Q] | 4.01 |
| EKPPSGTKEKKHQCDHCERCFYSR [T23S] | 3.79 |

Variants of: B2
Experiment: as above
Conditions: c terminus: a fixed tail appended

| Variant | protein stability index |
| --- | --- |
| AAWQGHLPGVKLLAKQPGVSVNAQ [I9G] | 2.14 |
| AAWQGHLPFVKLLAKQPGVSVNAQ [I9F] | 2.36 |
| AAWQGHLPSVKLLAKQPGVSVNAQ [I9S] | 2.83 |
| AAWQGHLPYVKLLAKQPGVSVNAQ [I9Y] | 2.45 |
| AAWQGHLPVVKLLAKQPGVSVNAQ [I9V] | 2.64 |
| AAWQGHLPPVKLLAKQPGVSVNAQ [I9P] | 3.45 |
| AAWQGHLPTVKLLAKQPGVSVNAQ [I9T] | 3.02 |
| AAWQGHLPQVKLLAKQPGVSVNAQ [I9Q] | 2.78 |
| AAWQGHLPAVKLLAKQPGVSVNAQ [I9A] | 3.49 |
| AAWQGHLPWVKLLAKQPGVSVNAQ [I9W] | 2.63 |
| AAWQGHLPNVKLLAKQPGVSVNAQ [I9N] | 1.79 |
| AAWQGHLPCVKLLAKQPGVSVNAQ [I9C] | 3.1 |
| AAWQGHLPEVKLLAKQPGVSVNAQ [I9E] | 2.55 |
| AAWQGHLPHVKLLAKQPGVSVNAQ [I9H] | 2.47 |
| IAWQGHLPIVKLLAKQPGVSVNAQ [A1I] | 1.95 |
| HAWQGHLPIVKLLAKQPGVSVNAQ [A1H] | 2.77 |
| FAWQGHLPIVKLLAKQPGVSVNAQ [A1F] | 3.12 |
| LAWQGHLPIVKLLAKQPGVSVNAQ [A1L] | 1.05 |
| TAWQGHLPIVKLLAKQPGVSVNAQ [A1T] | 2.22 |
| PAWQGHLPIVKLLAKQPGVSVNAQ [A1P] | 2.81 |
| KAWQGHLPIVKLLAKQPGVSVNAQ [A1K] | 2.25 |
| NAWQGHLPIVKLLAKQPGVSVNAQ [A1N] | 2.35 |
| DAWQGHLPIVKLLAKQPGVSVNAQ [A1D] | 3.41 |
| GAWQGHLPIVKLLAKQPGVSVNAQ [A1G] | 1.34 |

| Variant | protein stability index |
| --- | --- |
| EAWQGHLPIVKLLAKQPGVSVNAQ [A1E] | 2.24 |
| SAWQGHLPIVKLLAKQPGVSVNAQ [A1S] | 2.56 |
| CAWQGHLPIVKLLAKQPGVSVNAQ [A1C] | 2.18 |
| MAWQGHLPIVKLLAKQPGVSVNAQ [A1M] | 1.98 |
| AAWLGHLPIVKLLAKQPGVSVNAQ [Q4L] | 1.32 |
| AAWEGHLPIVKLLAKQPGVSVNAQ [Q4E] | 2.45 |
| AAWSGHLPIVKLLAKQPGVSVNAQ [Q4S] | 2.18 |
| AAWAGHLPIVKLLAKQPGVSVNAQ [Q4A] | 1.93 |
| AAWCGHLPIVKLLAKQPGVSVNAQ [Q4C] | 3.15 |
| AAWPGHLPIVKLLAKQPGVSVNAQ [Q4P] | 3.34 |
| AAWYGHLPIVKLLAKQPGVSVNAQ [Q4Y] | 1.51 |
| AAWMGHLPIVKLLAKQPGVSVNAQ [Q4M] | 1.94 |
| AAWIGHLPIVKLLAKQPGVSVNAQ [Q4I] | 1.34 |
| AAWVGHLPIVKLLAKQPGVSVNAQ [Q4V] | 1.7 |
| AAWFGHLPIVKLLAKQPGVSVNAQ [Q4F] | 1.24 |
| AAWDGHLPIVKLLAKQPGVSVNAQ [Q4D] | 2.62 |
| AAWNGHLPIVKLLAKQPGVSVNAQ [Q4N] | 2.06 |
| AAWRGHLPIVKLLAKQPGVSVNAQ [Q4R] | 1.89 |
| AAWGGHLPIVKLLAKQPGVSVNAQ [Q4G] | 2.56 |
| AAWTGHLPIVKLLAKQPGVSVNAQ [Q4T] | 2.65 |
| AAWHGHLPIVKLLAKQPGVSVNAQ [Q4H] | 3.18 |
| AAWWGHLPIVKLLAKQPGVSVNAQ [Q4W] | 1.61 |
| AAWQGHTPIVKLLAKQPGVSVNAQ [L7T] | 2.29 |
| AAWQGHQPIVKLLAKQPGVSVNAQ [L7Q] | 3.55 |
